Results: paper PMC5296750
Values joined by “and” are separate entries in the source; they are usually repeats but may differ in a detail not shown here. Equal values may be shown once.

What was measured:
[1] = target: Pyrococcus abyssi minichromosome maintenance protein (PabMCM), full-length, devoid of inteins (Pyrococcus abyssi); test: cryo-EM, reference-free 2D classification; Quantifoil grids with thin carbon, plunge-frozen; ~33,000 particles, Relion 2D classification without imposed symmetry
[2] = target: Pyrococcus abyssi minichromosome maintenance protein (PabMCM), full-length, devoid of inteins (Pyrococcus abyssi); test: negative-stain electron microscopy with single particle analysis; 1% uranyl acetate, FEI F20 FEG, 50,000x, MSA classification (IMAGIC-5), 3D reconstruction with EMAN2; map at 22 Å
[3] = target: Pyrococcus abyssi minichromosome maintenance protein (PabMCM), full-length, devoid of inteins (Pyrococcus abyssi); test: SEC; Superose 6 10/300 GL, 20 mM HEPES pH 7.4, 150 mM NaCl, 0.3 ml/min; apparent molecular weight estimated against gel-filtration standards

stoichiometry N [1]: 8
stoichiometry N [2]: 8 and 7
stoichiometry N [3]: 8
Substance: Pyrococcus abyssi minichromosome maintenance protein (PabMCM), full-length, devoid of inteins (enzyme)
